Experimental data as given in patent publication US6383734.
Blank lines part the entries; values can stand above or below the substance they belong to.

Experiments:
[1] = target: recombinant His-tagged mouse PAK3 from Sf9 cells (UniProt Q61036)
[2] = target: myc-tagged wild type Raf-1 (UniProt P04049)
[3] = target: Raf-CX (Raf modified to translocate to the plasma membrane independently of Ras) (UniProt P04049); assay: cell-based or functional assay
[4] = target: myc-tagged wild type Raf-1 (UniProt P04049); assay: cell-based or functional assay
[5] = target: Raf-CR3 (wild type), recombinant Raf-1 catalytic fragment, calmodulin binding protein fusion (UniProt P04049)
Raf-CR3[D338E339] = Raf-CR3[D338E339] (UniProt P04049)

p37, purified 37-kD Raf-1 serine 338/339 protein kinase from rat spleen (truncated PAK3), sequence (chain, as listed by the source): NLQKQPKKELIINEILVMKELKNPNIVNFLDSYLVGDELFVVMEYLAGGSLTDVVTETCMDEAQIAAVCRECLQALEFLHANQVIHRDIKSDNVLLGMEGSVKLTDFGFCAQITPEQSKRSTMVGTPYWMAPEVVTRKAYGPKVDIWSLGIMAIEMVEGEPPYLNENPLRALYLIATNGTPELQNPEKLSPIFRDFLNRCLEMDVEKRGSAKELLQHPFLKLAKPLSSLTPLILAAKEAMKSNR
recombinant His-tagged mouse PAK3 from Sf9 cells, sequence (Q61036 other isoform, or with tags, fused parts or gaps): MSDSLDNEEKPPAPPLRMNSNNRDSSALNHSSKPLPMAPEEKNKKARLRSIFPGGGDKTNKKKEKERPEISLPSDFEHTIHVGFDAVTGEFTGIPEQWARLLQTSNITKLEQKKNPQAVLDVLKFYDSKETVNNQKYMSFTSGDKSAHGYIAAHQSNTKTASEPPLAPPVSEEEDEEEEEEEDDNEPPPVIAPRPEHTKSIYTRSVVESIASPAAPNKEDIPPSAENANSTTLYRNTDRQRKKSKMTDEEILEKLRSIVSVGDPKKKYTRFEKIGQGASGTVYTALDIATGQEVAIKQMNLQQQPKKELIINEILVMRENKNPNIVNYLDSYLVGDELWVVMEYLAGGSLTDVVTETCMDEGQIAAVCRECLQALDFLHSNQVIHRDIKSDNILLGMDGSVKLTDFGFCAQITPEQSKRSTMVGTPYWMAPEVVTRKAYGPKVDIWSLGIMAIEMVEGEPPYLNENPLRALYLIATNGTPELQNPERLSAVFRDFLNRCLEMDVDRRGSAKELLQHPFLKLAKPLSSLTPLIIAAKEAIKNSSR

Substance: GST-Cdc42 charged with GTPγS
stimulation of the Raf-1 peptide and Raf-CR3 serine 338/339 kinase activity of PAK3 [1]: stimulated up to six-fold by co-incubation with GST-Rac-GTPγS or GST-Cdc42-GTPγS

Substance: constitutively active HA-tagged PAK3[S91,A93,A95]
increase in the amount of phosphorylated serine 338 (immunoprecipitation with phosphoserine 338-specific antibody, 9E10 blot) [2]: 2.5 and 6.5-fold increases in the amount of phosphorylated serine 338

reduction of the intrinsic Raf kinase activity in COS-7 cells [3]: > 70%
reduction of the Ras[V12]-inducible activation of Raf-1 in COS-7 cells [4]: > 50%
Substance: dominant negative HA-tagged PAK3[R278] (enzyme)

Substance: p37, purified 37-kD Raf-1 serine 338/339 protein kinase from rat spleen (truncated PAK3)
phosphorylation of Raf-CR3 (32P, SDS-PAGE, autoradiography) [5]: The purified kinase phosphorylated the wild type Raf-CR3
share of incorporated 32P in the serine 338/339 tryptic peptides [5]: Over 95% of the 32P incorporated within the phosphorylated Raf-CR3 was associated with the serine 338/339 tryptic peptides
phosphorylation of Raf-CR3 (32P, SDS-PAGE, autoradiography) (Raf-CR3[D338E339]): failed to significantly phosphorylate the Raf-CR3[D338E339] mutant
specific activity (Raf-1 peptide phosphorylation) (Raf-1 (331-345) peptide): extremely high specific activity (19,500 pmol/min/mg)
